From US20250099635A1, “IIMMUNOCONJUGATES COMPRISING KALLIKREIN RELATED PEPTIDASE 2 ANTIGEN BINDING DOMAINS AND THEIR USES” (Janssen Biotech, Inc., priority 2022, published 2025)

B1: KL2B242 (Fab) (antibody, V domains shown)
VH: QVQLQESGPGLVKPSETLSLTCTVSGGSISSYYWSWLRQPAGSGLEWIGRLYVSGFTNYNPSLKSRVTLSLDPSRNQLSLKLSSVTAADTAVYYCAGDSGNYWGWFDPWGQGTLVTVSS
VL: SYELTQPPSVSVSPGETASITCSGDQLGENYACWYQQKPGQSPVLVIYQDSKRPSGIPERFSGSNSGNTATLTISGTQALDEADYYCQAWDNSIVVFGGGTKLTVL
B2: KL2B467 (Fab) (antibody, V domains shown)
VH: QVQLVESGGGVVQPGRSLRLSCAASGFTFSYYGMHWVRQAPGKGLEWVAFISYDGSNKYYADSVKGRFTISRDNSKNTLYLQMNSLRAEDTAVYYCAHLPYSGSYWAFDYWGQGTQVTVSS
VL: QSVLTQPPSVSVAPGQTASITCGGDNIGSKSVHWYQQKPGQAPVLVVYDNSDRPSGIPERFSGSNSGTTATLTISRVEAGDEADYYCQVWDSSSDHPVVFGGGTKVTV
B3: KL2B53 (Fab) (antibody, V domains shown)
VH: EVQLVESGGGVVQPGRSLRLSCVASGFTFSSYDIHWVRQAPGKGLEWVAIISYDGSKKDYTDSVKGRFTISRDNSKNTLYLQMDSLRVEDSAVYSCARESGWSHYYYYGMDVWGQGTMVTVSS
VL: DIVMTQSPSSLSASVGDRVTITCRASQDISNYLAWYQQKPGKVPKFLIYAASTLHSGVPSRFSGSGSGTDFTLTISSLQPEDVATYYCQKYNSAPYTFGQGTRLEIK

Assay: Thermal stability (Tm) by Differential Scanning Fluorimetry (NanoDSF)
Type: physicochemical
Conditions: 0.5 mg/mL in Phosphate Buffered Saline, pH 7.4
Protocol: Thermal stability was determined by Differential Scanning Fluorimetry (NanoDSF) using an automated Prometheus instrument. NanoDSF was used to measure Tm of molecules at a concentration of 0.5 mg/mL in Phosphate Buffered Saline, pH 7.4. Measurements were made by loading samples into 24 well capillary from a 384 well sample plate. Duplicate runs were performed for each sample. The thermal scans span from 20° C. to 95° C. at a rate of 1.0° C./minute. Intrinsic tryptophan and tyrosine fluorescence were monitored at the emission wavelengths of 330 nm and 350 nm, and the F350/F330 nm ratio were plotted against temperature to generate unfolding curves.

Tm (° C.), >70 °C:
B1
B2
B3
